Laboratory results: paper PMC9482650, “Quantitative fragmentomics allow affinity mapping of interactomes” (Nature Communications, 2022)

Columns and labels:
Test in all cases: holdup assay
Set-up in all cases: key: below the threshold = too weak to quantify, mostly under pKd 3.1 to 4
APBA2_1, Q99767 = target: T1, APBA2_1, Q99767
T1 sequence (Q99767 563-664, limits assumed, looked up): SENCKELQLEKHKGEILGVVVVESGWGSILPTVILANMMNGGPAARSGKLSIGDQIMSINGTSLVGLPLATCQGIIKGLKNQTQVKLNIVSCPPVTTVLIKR

ARHGAP21, Q5T5U3 = target: T2, ARHGAP21, Q5T5U3
T2 sequence (Q5T5U3 45-169, limits assumed, looked up): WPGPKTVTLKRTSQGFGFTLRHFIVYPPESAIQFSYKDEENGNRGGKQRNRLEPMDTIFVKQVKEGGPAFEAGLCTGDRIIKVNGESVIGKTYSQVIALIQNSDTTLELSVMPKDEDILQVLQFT

PARD3B_1, Q8TEW8 = target: T3, PARD3B_1, Q8TEW8
T3 sequence (Q8TEW8 196-299, limits assumed, looked up): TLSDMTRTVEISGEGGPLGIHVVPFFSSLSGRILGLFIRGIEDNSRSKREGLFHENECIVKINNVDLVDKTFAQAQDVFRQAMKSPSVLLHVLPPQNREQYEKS

DLG5_1, Q8TDM6 = target: DLG5_1, Q8TDM6
MPDZ_10, O75970 = target: T4, MPDZ_10, O75970
T4 sequence (O75970 1624-1722, limits assumed, looked up): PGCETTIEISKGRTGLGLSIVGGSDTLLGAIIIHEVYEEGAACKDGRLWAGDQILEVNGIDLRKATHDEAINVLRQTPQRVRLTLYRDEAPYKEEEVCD

GRID2IP_1, A4D2P6 = target: GRID2IP_1, A4D2P6
MPDZ_12, O75970 = target: T5, MPDZ_12, O75970
T5 sequence (O75970 1857-1958, limits assumed, looked up): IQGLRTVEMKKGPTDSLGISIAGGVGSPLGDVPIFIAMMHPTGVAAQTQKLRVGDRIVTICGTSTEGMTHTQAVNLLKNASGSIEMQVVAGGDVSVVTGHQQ

LNX1_1, Q8TBB1 = target: LNX1_1, Q8TBB1
DLG1_3, Q12959 = target: DLG1_3, Q12959
GRASP, Q7Z6J2 = target: GRASP, Q7Z6J2
Inadl_9, Q8NI35 = target: Inadl_9, Q8NI35
GOPC, Q9HD26 = target: GOPC, Q9HD26
RADIL, Q96JH8 = target: T6, RADIL, Q96JH8
T6 sequence (Q96JH8 971-1071, limits assumed, looked up): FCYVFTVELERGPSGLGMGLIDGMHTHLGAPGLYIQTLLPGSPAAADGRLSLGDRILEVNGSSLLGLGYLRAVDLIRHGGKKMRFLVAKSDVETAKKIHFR

MAGI2_4, Q86UL8 = details: plain residues with an end cap or a label only (N-terminal biotin on a linker: ttds)
FRMPD2_2, Q68DX3 = target: FRMPD2_2, Q68DX3
MAGI3_2, Q5TCQ9 = target: MAGI3_2, Q5TCQ9
AHNAK1, Q09666 = target: AHNAK1, Q09666
NHERF4_1, Q86UT5-2 = target: NHERF4_1, Q86UT5-2
NHERF4_2, Q86UT5 = target: NHERF4_2, Q86UT5
RAPGEF6, Q8TEU7 = target: T7, RAPGEF6, Q8TEU7
T7 sequence (Q8TEU7 525-625, limits assumed, looked up): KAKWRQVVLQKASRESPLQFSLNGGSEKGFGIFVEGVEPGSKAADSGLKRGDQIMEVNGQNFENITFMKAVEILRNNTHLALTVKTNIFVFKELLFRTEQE

IL16_1, Q14005 = target: IL16_1, Q14005
APBA1_1, Q02410 = target: T8, APBA1_1, Q02410
T8 sequence (Q02410 651-752, limits assumed, looked up): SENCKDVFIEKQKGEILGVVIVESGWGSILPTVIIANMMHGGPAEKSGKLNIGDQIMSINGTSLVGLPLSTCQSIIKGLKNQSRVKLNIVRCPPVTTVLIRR

LAP2, Q96RT1 = target: LAP2, Q96RT1
SHANK1, Q9Y566 = target: T9, SHANK1, Q9Y566; details: plain residues with an end cap or a label only (N-terminal biotin on a linker: ttds)
T9 sequence (Q9Y566 658-767, limits assumed, looked up): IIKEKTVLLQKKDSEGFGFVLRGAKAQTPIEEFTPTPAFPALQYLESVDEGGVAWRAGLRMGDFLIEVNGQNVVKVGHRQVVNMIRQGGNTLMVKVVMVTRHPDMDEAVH

MPDZ_5, O75970 = target: T10, MPDZ_5, O75970
T10 sequence (O75970 695-796, limits assumed, looked up): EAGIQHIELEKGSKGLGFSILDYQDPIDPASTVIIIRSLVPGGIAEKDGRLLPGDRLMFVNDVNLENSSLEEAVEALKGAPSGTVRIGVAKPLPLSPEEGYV

SCRIB_1, Q14160 = target: SCRIB_1, Q14160
[1] = plain residues with an end cap or a label only (N-terminal biotin on a linker: ttds)
[2] = plain residues with an end cap or a label only (N-terminal biotin on a linker: ahx)

Sequence of NHERF4_1, Q86UT5-2 (Q86UT5 other isoform, or with tags, fused parts or gaps): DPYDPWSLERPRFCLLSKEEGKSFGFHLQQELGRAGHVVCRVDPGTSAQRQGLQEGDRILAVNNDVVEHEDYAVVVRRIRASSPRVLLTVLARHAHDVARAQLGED
Sequence of AHNAK1, Q09666 (Q09666 4-100): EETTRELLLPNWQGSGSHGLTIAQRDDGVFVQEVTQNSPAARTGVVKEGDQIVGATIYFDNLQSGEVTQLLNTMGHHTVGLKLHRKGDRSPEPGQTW
Sequence of DLG5_1, Q8TDM6 (Q8TDM6 617-713): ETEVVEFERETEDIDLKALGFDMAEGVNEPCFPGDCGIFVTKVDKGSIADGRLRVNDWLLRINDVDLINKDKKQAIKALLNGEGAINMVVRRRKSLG
Sequence of GRID2IP_1, A4D2P6 (A4D2P6 1-87): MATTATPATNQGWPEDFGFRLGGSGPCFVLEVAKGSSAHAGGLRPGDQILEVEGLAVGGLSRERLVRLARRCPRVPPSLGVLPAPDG
Sequence of IL16_1, Q14005 (Q14005 210-306): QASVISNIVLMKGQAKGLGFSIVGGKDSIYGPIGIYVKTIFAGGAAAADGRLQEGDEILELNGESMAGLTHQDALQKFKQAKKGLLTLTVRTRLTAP
Sequence of Inadl_9, Q8NI35 (Q8NI35 1530-1615): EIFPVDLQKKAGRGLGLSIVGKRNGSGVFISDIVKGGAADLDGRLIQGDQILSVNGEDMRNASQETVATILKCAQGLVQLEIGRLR
Sequence of MAGI3_2, Q5TCQ9 (Q5TCQ9 398-503): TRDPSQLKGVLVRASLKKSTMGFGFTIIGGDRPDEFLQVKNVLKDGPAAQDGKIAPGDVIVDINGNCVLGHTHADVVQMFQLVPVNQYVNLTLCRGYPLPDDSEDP
Sequence of FRMPD2_2, Q68DX3 (Q68DX3 944-1038): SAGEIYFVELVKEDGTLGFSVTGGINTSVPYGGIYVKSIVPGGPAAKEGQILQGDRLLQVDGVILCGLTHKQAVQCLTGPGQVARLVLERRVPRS
Sequence of NHERF4_2, Q86UT5 (Q86UT5 220-308): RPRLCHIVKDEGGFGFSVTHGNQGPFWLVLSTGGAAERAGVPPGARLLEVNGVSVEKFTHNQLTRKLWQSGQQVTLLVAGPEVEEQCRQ
Sequence of GRASP, Q7Z6J2 (Q7Z6J2 96-193): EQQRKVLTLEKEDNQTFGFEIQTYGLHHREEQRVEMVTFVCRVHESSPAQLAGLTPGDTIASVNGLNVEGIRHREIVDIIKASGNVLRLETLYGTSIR
Sequence of LNX1_1, Q8TBB1 (Q8TBB1 261-371): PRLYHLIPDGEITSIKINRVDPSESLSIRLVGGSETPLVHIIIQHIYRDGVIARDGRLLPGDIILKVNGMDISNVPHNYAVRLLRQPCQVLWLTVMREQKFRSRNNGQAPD
Sequence of SCRIB_1, Q14160 (Q14160 718-814): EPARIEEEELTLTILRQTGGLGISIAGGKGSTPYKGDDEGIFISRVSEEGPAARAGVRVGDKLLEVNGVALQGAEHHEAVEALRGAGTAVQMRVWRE
Sequence of DLG1_3, Q12959 (Q12959 457-571): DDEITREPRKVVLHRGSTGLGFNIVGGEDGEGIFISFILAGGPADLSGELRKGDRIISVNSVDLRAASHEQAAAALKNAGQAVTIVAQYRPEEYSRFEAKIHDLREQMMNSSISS
Sequence of LAP2, Q96RT1 (Q96RT1 other isoform, or with tags, fused parts or gaps): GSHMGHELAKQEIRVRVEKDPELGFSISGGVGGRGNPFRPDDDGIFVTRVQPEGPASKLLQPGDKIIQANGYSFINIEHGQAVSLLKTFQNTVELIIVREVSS
Sequence of MAGI2_4, Q86UL8 (Q86UL8 772-865): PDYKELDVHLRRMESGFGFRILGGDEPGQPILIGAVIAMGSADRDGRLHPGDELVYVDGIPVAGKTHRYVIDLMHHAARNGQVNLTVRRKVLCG

PRVKPQRSKV [PPP1R13L, Q8WUF5] was tested, and the pKd (APBA2_1, Q99767; [1]) was “below the threshold”, the pKd (ARHGAP21, Q5T5U3; [1]) was “below the threshold” and the pKd (PARD3B_1, Q8TEW8; [1]) was “below the threshold”. The pKd (DLG5_1, Q8TDM6; [1]) was “below the threshold”, the pKd (MPDZ_10, O75970; [1]) was “below the threshold” and the pKd (GRID2IP_1, A4D2P6; [1]) was “below the threshold”. For the same binder, the pKd (MPDZ_12, O75970; [1]) was “below the threshold”, the pKd (LNX1_1, Q8TBB1; [1]) was “below the threshold” and the pKd (DLG1_3, Q12959; [1]) was “below the threshold”. The pKd (GRASP, Q7Z6J2; [1]) was 4.39, the pKd (Inadl_9, Q8NI35; [1]) was “below the threshold” and the pKd (GOPC, Q9HD26; [1]) was 3.95. The pKd (RADIL, Q96JH8; [1]) was “below the threshold”, the pKd (MAGI2_4, Q86UL8) was “below the threshold” and the pKd (FRMPD2_2, Q68DX3; [1]) was “below the threshold”. The pKd (MAGI3_2, Q5TCQ9; [1]) was 4.07, the pKd (AHNAK1, Q09666; [1]) was “below the threshold” and the pKd (NHERF4_1, Q86UT5-2; [1]) was “below the threshold”. The pKd (NHERF4_2, Q86UT5; [1]) was “below the threshold”, the pKd (RAPGEF6, Q8TEU7; [1]) was “below the threshold” and the pKd (IL16_1, Q14005; [1]) was “below the threshold”. For the same binder, the pKd (APBA1_1, Q02410; [1]) was “below the threshold”, the pKd (LAP2, Q96RT1; [1]) was “below the threshold” and the pKd (SHANK1, Q9Y566) was 3.64. The pKd (MPDZ_5, O75970; [1]) was “below the threshold” and the pKd (SCRIB_1, Q14160; [1]) was “below the threshold”.

RLQRRRETQV [HPV18-E6, P06463] was tested, and the pKd (APBA2_1, Q99767; [1]) was “below the threshold”, the pKd (ARHGAP21, Q5T5U3; [1]) was “below the threshold” and the pKd (PARD3B_1, Q8TEW8; [1]) was “below the threshold”. The pKd (DLG5_1, Q8TDM6; [1]) was “below the threshold”, the pKd (MPDZ_10, O75970; [1]) was 3.56 and the pKd (GRID2IP_1, A4D2P6; [1]) was “below the threshold”. For the same binder, the pKd (MPDZ_12, O75970; [1]) was “below the threshold”, the pKd (LNX1_1, Q8TBB1; [1]) was “below the threshold” and the pKd (DLG1_3, Q12959; [1]) was 5.02. The pKd (GRASP, Q7Z6J2; [1]) was “below the threshold”, the pKd (Inadl_9, Q8NI35; [1]) was “below the threshold” and the pKd (RADIL, Q96JH8; [1]) was 3.28. The pKd (MAGI2_4, Q86UL8) was 4.28, the pKd (FRMPD2_2, Q68DX3; [1]) was “below the threshold” and the pKd (MAGI3_2, Q5TCQ9; [1]) was 5.56. For the same binder, the pKd (AHNAK1, Q09666; [1]) was “below the threshold”, the pKd (NHERF4_1, Q86UT5-2; [1]) was “below the threshold” and the pKd (NHERF4_2, Q86UT5; [1]) was “below the threshold”. The pKd (RAPGEF6, Q8TEU7; [1]) was “below the threshold”, the pKd (IL16_1, Q14005; [1]) was “below the threshold” and the pKd (APBA1_1, Q02410; [1]) was “below the threshold”. For the same binder, the pKd (LAP2, Q96RT1; [1]) was 3.61, the pKd (SHANK1, Q9Y566) was “below the threshold” and the pKd (MPDZ_5, O75970; [1]) was “below the threshold”. It also gave a pKd (SCRIB_1, Q14160; [1]) of 4.26.

For LSDPSVSTVV [GRIN1, Q05586;Q05586-2], the pKd (APBA2_1, Q99767; [2]) was “below the threshold”, the pKd (ARHGAP21, Q5T5U3; [2]) was “below the threshold” and the pKd (PARD3B_1, Q8TEW8; [2]) was “below the threshold”. The pKd (DLG5_1, Q8TDM6; [2]) was “below the threshold”, the pKd (MPDZ_10, O75970; [2]) was “below the threshold” and the pKd (GRID2IP_1, A4D2P6; [2]) was “below the threshold”. The pKd (MPDZ_12, O75970; [2]) was “below the threshold”, the pKd (LNX1_1, Q8TBB1; [2]) was 4.17 and the pKd (DLG1_3, Q12959; [2]) was “below the threshold”. The pKd (GRASP, Q7Z6J2; [2]) was 3.94, the pKd (Inadl_9, Q8NI35; [2]) was “below the threshold” and the pKd (GOPC, Q9HD26; [2]) was “below the threshold”. For the same binder, the pKd (RADIL, Q96JH8; [2]) was 3.98, the pKd (FRMPD2_2, Q68DX3; [2]) was “below the threshold” and the pKd (MAGI3_2, Q5TCQ9; [2]) was “below the threshold”. The pKd (AHNAK1, Q09666; [2]) was “below the threshold”, the pKd (NHERF4_1, Q86UT5-2; [2]) was “below the threshold” and the pKd (NHERF4_2, Q86UT5; [2]) was “below the threshold”. For the same binder, the pKd (RAPGEF6, Q8TEU7; [2]) was “below the threshold”, the pKd (IL16_1, Q14005; [2]) was “below the threshold” and the pKd (APBA1_1, Q02410; [2]) was “below the threshold”. The pKd (LAP2, Q96RT1; [2]) was “below the threshold”, the pKd (MPDZ_5, O75970; [2]) was “below the threshold” and the pKd (SCRIB_1, Q14160; [2]) was “below the threshold”.
